Patent US20230235054A1 (BIOATLA, published 2023)

T1: human Nectin-4-mFc (human, UniProt Q96NY8 32-349)
T1 construct: extracellular domain; Detection reagent of the bridging ELISA; also called recombinant human Nectin-4 ECD; not shown: mFc (mouse Fc)
T1 sequence (looked up): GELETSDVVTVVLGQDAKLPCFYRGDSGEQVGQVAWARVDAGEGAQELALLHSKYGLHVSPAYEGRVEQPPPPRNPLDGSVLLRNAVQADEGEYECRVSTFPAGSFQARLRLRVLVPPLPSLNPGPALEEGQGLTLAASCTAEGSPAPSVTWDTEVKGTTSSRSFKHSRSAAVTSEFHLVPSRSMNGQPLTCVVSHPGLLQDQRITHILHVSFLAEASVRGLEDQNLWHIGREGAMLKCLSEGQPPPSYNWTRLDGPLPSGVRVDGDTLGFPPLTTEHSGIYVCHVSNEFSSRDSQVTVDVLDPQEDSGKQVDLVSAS


What was measured:
human Nectin-4-mFc = biological target: T1, human Nectin-4-mFc; experiment: bridging ELISA, human CD3 coated, detection with human Nectin-4-mFc and anti-mouse IgG HRP, tumor pH (pH 6.0 in the protocol)
[1] = biological target: T2, CD3 epsilon/delta heterodimer protein (human, UniProt P07766 23-126; P04234 22-105); experiment: bridging ELISA, human CD3 coated, bispecific titrated, detection with human Nectin-4-mFc and anti-mouse IgG HRP, tumor pH (pH 6.0 in the protocol); the signal needs both arms
T2 construct: Capture antigen of the bridging ELISA; also called human CD3; recombinant human CD3 antigen
Procedure: (§1) 1) Coat ELISA plates with 100 μL of 0.5 μg/mL recombinant human CD3 antigen in carbonate-bicarbonate coating buffer. 2) Cover plates with sealing film and incubate overnight at 4° C. 3) Decant plates and tap out residual liquid on a stack of paper towels. 4) Wash wells twice by dispensing 200 μL of pH 6.0 or pH 7.4 ELISA incubation buffer to the wells and completely aspirate the contents. 5) Add 200 μL of pH 6.0 or pH 7.4 ELISA incubation buffer to the wells. Cover with sealing film and place the plate onto a plate shaker set to 50 rpm for 60 minutes at room temperature. 6) Decant plates and tap out residual liquid on a stack of paper towels. 7) Serially dilute test articles in 3-fold dilutions starting at 3000 ng/mL in pH 6.0 or pH 7.4 ELISA incubation buffer. 8) Add 100 μL/well of diluted test articles to the plates 9) Cover with sealing film and place the plates onto a plate shaker set to 50 rpm for 60 minutes at room temperature. 10) Decant plates and tap out residual liquid on a stack of paper towels. 11) Wash wells three times by dispensing 200 μL of pH 6.0 or pH 7.4 ELISA wash buffer to the wells and completely aspirate the contents. 12) Dilute the HRP secondary antibody at 1:2500 in pH 6.0 or pH 7.4 ELISA incubation buffer. […] Read plates at 450 nm using PerkinElmer, EnSpire 2300 Multilabel Reader.

[2] = biological target: T2, CD3 epsilon/delta heterodimer protein; experiment: bridging ELISA, human CD3 coated, bispecific titrated, detection with human Nectin-4-mFc and anti-mouse IgG HRP, physiological pH (pH 7.4 in the protocol); the signal needs both arms
Procedure: as §1

T2 sequence (P07766 23-126, stated change not applied, chain 1 of 2): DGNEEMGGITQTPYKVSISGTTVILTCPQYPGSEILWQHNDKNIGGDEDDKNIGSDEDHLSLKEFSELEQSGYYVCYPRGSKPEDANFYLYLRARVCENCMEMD
T2 sequence (P04234 22-105, stated change not applied, chain 2 of 2): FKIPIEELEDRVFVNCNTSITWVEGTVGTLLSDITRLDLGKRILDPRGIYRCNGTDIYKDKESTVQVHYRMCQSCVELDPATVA

| binding result (human Nectin-4-mFc) | EC50 (read off the curve) [1] [mg/L] | EC50 (read off the curve) [2] [mg/L] | Binder |
| --- | --- | --- | --- |
| binds | ~0.05 | ~0.03 | WT Nectin4 × WT CD3 (bispecific antibody, elsewhere it is called a light chain variable region that also carries six anti-CD3 CDRs; also called BA-150-19-01-01-BF1; benchmark) VH: EVQLVESGGGLVQPGGSLRLSCAASGFTFSSYNMNWVRQAPGKGLEWVSYISSSSSTIYYADSVKGRFTISRDNAKNSLSLQMNSLRDEDTAVYYCARAYYYGMDVWGQGTTVTVSS light: DIQMTQSPSSVSASVGDRVTITCRASQGISGWLAWYQQKPGKAPKFLIYAASTLQSGVPSRFSGSGSGTDFTLTISSLQPEDFATYYCQQAQSFPPTFGGGTKVEIKRTVAAPSVFIFPPSDEQLKSGTASVVCLLNNFYPREAKVQWKVDNALQSGNSQESVTEQDSKDSTYSLSSTLTLSKADYEKHKVYACEVTHQGLSSPVTKSFNRGECSRSGGGGEVQLVESGGGLVQPGGSLRLSCAASGFTFNTYAMNWVRQAPGKGLEWVARIRSKYNNYATYYADSVKDRFTISRDDSKNSLYLQMNSLKTEDTAVYYCVRHGNFGNSYVSWFAYWGQGTLVTVSSGGSGGSGGSGGSGGQAVVTQEPSLTVSPGGTVTLTCRSSTGAVTTSNYANWVQQKPGQAPRGLIGGTNKRAPWTPARFSGSLLGGKAALTITGAQAEDEADYYCALWYSNLWVFGGGTKLTVLSR |
| binds | ~0.03 | ~0.2 | CAB Nectin4 × CAB CD3 (bispecific antibody, elsewhere it is called a light chain variable region that also carries six anti-CD3 CDRs; also called BA-150-30-03-12-BF19) VH: EVQLVESGGGLVQPGGSLRLSCAASGFTFSSYNMNWVRQAPGKGLEWVSYISSSSSTIYYADSVKGRFTISRDNAKNSLSLQMNSLRDEDTAVYYCARAYYYGMDKWGQGTTVTVSS light: DIQMTQSPSSVSASVGDRVTITCRASQGISGWEAWYQQKPGKAPKFLIYAASTLQSGVPSRFSGSGSGTDFTLTISSLQPEDFATYYCQQAQSFPPTFGGGTKVEIKRTVAAPSVFIFPPSDEQLKSGTASVVCLLNNFYPREAKVQWKVDNALQSGNSQESVTEQDSKDSTYSLSSTLTLSKADYEKHKVYACEVTHQGLSSPVTKSFNRGECSRSGGGGEVQLVESGGGLVQPGGSLRLSCAASGFTFNTYAMNWVRQAPGKGLEWVARIRSKYNNYATYYADSVKDRFTISRDDSKNSLYLQMNSLKTEDTAVYYCVRHGNFPNSKVSWFQYWGQGTLVTVSSGGSGGSGGSGGSGGQAVVTQEPSLTVSPGGTVTLTCRSSTGAVTTSNYDNWVQQKPGQAPRGLIGGTNKRAPWTPARFSGSLLGGKAALTITGAQAEDEADYYCALWYSNLWVFGGGTKLTVLSR |
